Source: patent publication US20160053277A1, “Compositions Having Dicamba Decarboxylase Activity and Methods of Use” (PIONEER HI-BRED INTERNATIONAL, INC., priority 2013, published 2016)

Experiments:
[1] = Product analysis of reactions of purified His-tag protein with dicamba (14C assay, GC/MS, LC-MS/MS); assay type: biochemical; details: for enzymatic reaction products detected: purified protein incubated with dicamba
Description: Alternatively, dicamba decarboxylase activity can be monitored by measuring decarboxylation products other than CO2 using product detection methods. The decarboxylation product of dicamba, 2,5-dichloro anisole or 2,5-DCA (FIG. 1C), is a volatile compound with a flash point of 21° C. To capture this volatile compound for detection, 140 ul of toluene solution is added on top of 1 ml reaction mixture to form a trapping layer in a 1.5 ml eppendorf tube. […] The reaction is kept still at room temperature overnight before being vortex mixed and centrifuged at 14,000 rpm for 15 minutes. The top toluene phase is carefully removed using a micropipette and transferred into a 12×32 mm polypropylene vial (Vial 11 mm) from MicroLiter Analytical Supplies, Inc. (catalog number 11-5300-100). The vial is sealed with Crimp seal (11 mm with FEP/Nat Rubber) from MicroLiter Analytical Supplies, Inc. (catalog number 11-0020A) using a E-Z Crimper™ 11 mm from Wheaton Inc. 1 ul of the toluene mixture is taken from the sealed vials and injected in splitless mode into a GC/MS system for sample analysis (Agilent GC/MS system with a 6890A GC, a 5973N MSD and a CTC CombiPAL auto-sampler or with a 7890A GC, a 5975C MSD and an Agilent GC Sampler 80 auto-sampler).

[2] = Dicamba decarboxylation activity of computationally designed protein variants and their parents; details: for dicamba decarboxylase activity (native protein or designed variant): statement in the description; for Percent Activity Improvement Over Parent: parent = 100
[3] = Saturation mutagenesis of SEQ ID NO:109: dicamba decarboxylation activity of point mutants (carbon dioxide released); details: decarboxylation activity (carbon dioxide released) of point mutant compared with unmutated backbone protein; backbone SEQ ID NO: 109
[4] = 14C assay with IPTG-induced recombinant E. coli cells: 14CO2 captured from [14C]-carboxyl-labeled dicamba; details: for Enzymatic Detection level: dicamba decarboxylation activity of the protein of the given SEQ ID NO, High / Low / No; for Dicamba Decarboxylase Activity: induced recombinant E. coli cells, [14C]-carboxyl-labeled dicamba, 14CO2 capture
[5] = Shuffled variant libraries: 14CO2 capturing assay in 384-well format; details: decarboxylation activity (carbon dioxide released) compared with unmutated backbone protein SEQ ID NO 133 (DDEC0201)
[6] = compared to estimated CO2 formation (100%)

B1: 117 (protein)
chain: MAKKPRIDMHSHFFPRISEQEAAKFDANHAPWLQVSAKGDTGSIMMGKNNFRPVYQALWDPAFRIEEMDAQGVDVQVTCATPVMFGYTWEANKAAQWAERMNDFALEFAAHNPQRIKVLAQVPLQDLDLACKEASRAVAAGHLGIQIGNHLGDKDLDDATLEAFLTHCANEDIPILVHPWDMMGGQRMKKWMLPVLVAAPAEVQLAILSLILSGAFERIPKSLKICFAGGGGSFAFLLGIVDLAWRHRDIVREDCPRPPSEYVDRFFVDSLVFNPGALELLVSVMGEDRVMLGSDYPFPTGEQKIGGLVLSSNLGESAKDKIISGNASKFFNINV
modifications: Dicamba decarboxylase variant clone: DC.5.008
- enzymatic reaction products detected [1]: 2,5-DCA was detected
- dicamba decarboxylase activity (native protein or designed variant) [2]: have dicamba decarboxylase activity
- Fold Activity [3]: 1.8
- Enzymatic Detection level [4]: High

B2: 118 (protein)
chain: MAKKPRIDMHSHFFPRISEQEAAKFDANHAPWLQVSAKGDTGSIMMGKNNFQPVYQALWDPAFRIEEMDAQGVDVQVTCATPVMFGYTWEANKAAQWAERMNDFALEFAAHNPQRIKVLAQVPLQDLDLACKEASRAVAAGHLGIQIGNHLGDKDLDDATLEAFLTHCANEDIPILVHGTDMMGGQRMKKWGLPWLVALAAEVQLAILSLILSGAFERIPKSLKICFSHGGGSFAFLLGLVDEAWRHVDIVREDCPRPPSEYVDRFFVDSVGNPGALELLVSVMGEDRVMLGSDYPHTTGEQKIGGLVLSSNLGESAKDKIISGNASKFFNINV
modifications: Dicamba decarboxylase variant clone: DC.5.033
- enzymatic reaction products detected [1]: 2,5-DCA was detected
- dicamba decarboxylase activity (native protein or designed variant) [2]: have dicamba decarboxylase activity
- Fold Activity [3]: 1.4
- Enzymatic Detection level [4]: High

B3: 119 (protein)
chain: MAKKPRIDMHSHFFPRISEQEAAKFDANHAPWLQVSAKGDTGSIMMGKNNFQPVYQALWDPAFRIEEMDAQGVDVQVTCATPVMFGYTWEANKAAQWAERMNDFALEFAAHNPQRIKVLAQVPLQDLDLACKEASRAVAAGHLGIQIGNHLGDKDLDDATLEAFLTHCANEDIPILVHGWDMMGGQRMKKWGLYWLVAHHAEVQLAILSLILSGAFERIPKSLKICFSHGGGSFAFTLGWVDEAWRHVDIVREDCPRPPSEYVDRFFVDSVGNPGALELLVSVMGEDRVMLGSDYPLTTGEQKIGGLVLSSNLGESAKDKIISGNASKFFNINV
modifications: Dicamba decarboxylase variant clone:DC.5.034
- enzymatic reaction products detected [1]: 2,5-DCA was detected
- dicamba decarboxylase activity (native protein or designed variant) [2]: have dicamba decarboxylase activity
- Fold Activity [3]: 1.6
- Enzymatic Detection level [4]: High

B4: 260 (protein)
chain: MAQGKVALEEHFAIPETLQDSAGFVPGDYWKELQHRLLDIQDTRLKLMDAHGIETMILSLAAPAVQAIPDRRKAIEIARRANDFLAEECAKRPDRFLAFAALPMQDPDAASEELQRCVNDLGFVGALVNGFSVEGDGQTPLYYDLPQYRPFWGEVEKLDVPFYLHPRNPLPQDSRIYDGHPWLLGPTWAFAQETAVHALRLMASGLFDEHPRLNIILGHLGEGLPYMMYRIDHRIAWVKLPPRYPAKRRFMDYFNENFHITTSGNFRTQTLIDAILEIGADRILFSTDWPFENIDHAADWFNATSIAEADRVKIGRTNAPSSVQTG
modifications: Dicamba decarboxylase variant
- Fold Activity [3]: 1.7
- Fold Activity [5]: 1.5

B5: 116 (protein)
chain: MAQGKVALEEHFAIPETLQDAAGFVPGDYWKELQHRLLDIQDRRVRLMDEHGIETMILSLNAPAVQAIADSTRANETARRANDFLAEQVAKQPTRFRGFAALPMQDPELAARELERCVKELGFVGALVNGFSQDNRSAVPLYYDMAQYWPFWETVQALDVPFYLHPRNPLPSDARIYDGHAWLLGPTWAFGQETAVHALRLMGSGLFDKYPALKIILGHMGEGLPYSMWRIDHRNAWIKTTPKYPAKRKIVDYFNENFYLTTSGNFRTQTLIDAILEIGADRILFSTDWPFENIDHAADWFENTSISEADRKKIGWGNAQNLFKLNR
modifications: Dicamba decarboxylase variant clone: DC.30.007
- Percent Activity Improvement Over Parent [2]: 220%
- dicamba decarboxylase activity (native protein or designed variant) [2]: displays an increase in dicamba decarboxylase activity
- Fold Activity [3]: 1.5
- Enzymatic Detection level [4]: High

B6: 259 (protein)
chain: MAQGKVALEEHFAIPETLQDSAGFVPSEYLKELQHRLLDIQDTRLKLMDAHGIETMILSLAAPAVQAIPDRRKAIEIARRANDFLAEECAKRPDRFLAFAALPMQDPDAATEELQRCVNDLGFVGALVNGFSVEGDGQTPLYYDLPQYRPFWGEVEKLDVPFYLHPRNPLPQDSRIYDGHPWLLGPTWAFAQETAVHALRLMASGLFDEHPRLNIILGHMGEGLPYMMYRIDHRIAWVHEPPRYPAKRRFMDYFNENFHITTSGNFRTQTLIDAILEIGADRILFSTDWPFENIDHATAWFNATSIAEADRVKIGRTNARRLFKLDGD
modifications: Dicamba decarboxylase variant
- Fold Activity [3]: 2.4
- Fold Activity [5]: 1.8

B7: 1 (protein, listed as Rhizobium sp.)
chain: MAQGKVALEEHFAIPETLQDSAGFVPGDYWKELQHRLLDIQDTRLKLMDAHGIETMILSLNAPAVQAIPDRRKAIEIARRANDVLAEECAKRPDRFLAFAALPLQDPDAATEELQRCVNDLGFVGALVNGFSQEGDGQTPLYYDLPQYRPFWGEVEKLDVPFYLHPRNPLPQDSRIYDGHPWLLGPTWAFAQETAVHALRLMASGLFDEHPRLNIILGHMGEGLPYMMWRIDHRNAWVKLPPRYPAKRRFMDYFNENFHITTSGNFRTQTLIDAILEIGADRILFSTDWPFENIDHASDWFNATSIAEADRVKIGRTNARRLFKLDGA
- relative amount of 2,5-DCA [1, 6]: < 1%
- relative amount of 2,5-DCP [1, 6]: > 80%
- relative amount of 4-chloro-3-methoxy phenol [1, 6]: < 10%
- enzymatic reaction products detected [1]: four enzymatic reaction products
- Percent Activity Improvement Over Parent [2]: 100%
- Fold Activity [3]: 1.2
- decarboxylation activity of dicamba ([4]; among the 108 sequences tested, recombinant E. coli cells): showed decarboxylation activity of dicamba
- Enzymatic Detection level [4]: High
- Dicamba Decarboxylase Activity [4]: High

B8: 258 (protein)
chain: MAQGKVALEEHFAIPETLQDSAGFVPGDYWKELQHRLLDIQDTRLRLMDAHGIETMILSLAAPAVQAIPDRRKAIEIARRANDFLAEECAKRPDRFLAFAALPLQDPDAATEELQRTVNDLGFVGALVNGFSQEGDGQTPLYYDLPQYRPFWGEVEKLDVPFYLHPRNPLPQDSRIYDGHPWLLGPTWAFAQETAVHALRLMASGLFDEHPRLNIILGHMGEGLPYMMYRIDHRIAWVHEPPRYPAKRRFMDYFNENFHITTSGNFRTQTLIDAILEIGADRILFSTDWPFENIDHAADWFNATSIAEADRVKIGRTNARRLFKLDGA
modifications: Dicamba decarboxylase variant
- Fold Activity [3]: 2.8
- Fold Activity [5]: 1.2

B9: 261 (protein)
chain: MAQGKVALEEHFAIPETLQDSAGFVPGDYWKELQHRLLDIQDTRLKLMDAHGIETMILSLAAPAVQAIPDRVEAIEIARRANDFLAEECAKRPDRFLAFAALPLQDPDAATEELQRCVNDLGFVGALVNGFSQEGDGQTPLYYDLPQYRPFWGEVEKLDVPFYLHPRNPLPQDSRIYDGHPWLLGPTWAFAQETAVHALRLMASGLFDEHPRLNIILGHMGEGLPYMMYRIDHRIAWVHEPPRYPAKRRFMDYFNENFHITTSGNFRTQTLIDAILEIGADRILFSTDWPFENIDHAADWFNATSIAEADRVKIGRTNARRLFKLDGA
modifications: Dicamba decarboxylase variant
- Fold Activity [3]: 2.3
- Fold Activity [5]: 1.2

B10: 100 (protein, listed as Reinekea blandensis)
chain: MAIIDCHGHYTTTPKGVEDYRNAQKAAVAKDPSFKGEKGQVVVSDDEIRESIENNQLKMQRERGTDLTIFSPRASWMGHHIGNEYTSQFWTEHQNDLIRRVCDLFPKNFAPVAQLPQSPGVDPAKSVPEIVRTVEQMGFIGINLNPDPSGGYWKDTSLADRAFYPIYEKMVEYDIPAMIHVSAACNDCFHTTGSHYLGADTTGFQQLIMSDVFKDFPSLKIIIPHGGGAVPYHWGRFRGLMQDQGYAPLEESALKNIYFDTCVYHQRGIDLLLDIVPTQNILFASEMIGAVRGIDPETGHNFDDTKRYIDNNTALNAEEKAMIFEGNARRVFSRLKTD
- dicamba decarboxylase activity (native protein or designed variant) [2]: Neither of the native proteins have dicamba decarboxylase activity
- Fold Activity [3]: 2.5
- Enzymatic Detection level [4]: No
- Dicamba Decarboxylase Activity [4]: No
